{"source": "the DeepSol protein solubility set", "data": [{"test": "soluble on expression in E. coli; label from the status in PepcDB or PDB records", "values": [{"sequence": "MAHHHHHHMGKAAKGRTAMPGKLDTTEADKRTPKSIIIYRGEVGIHVRSLMHEWRNVFLPWSSKKLHGKNKSLKDFLAVAATFSASHLQLFTAPSQGTSLRIMRFFNGPTLSFRVLSFTLHKEIVAKQRRPVAVDRAAWEVAPIVVLNNFTHPDLAHRAEVPLLTATFKALFPSLNVQTIQSSEIQRICLFHYDHVEHVVEVRHYYINARTVGVTKTVKKLLENRRPTKLGTLESIDEVLDREDAWSDTDGEGEEVPLVQPFRQHREQCRVKLQEIGPRMTLQLSKVENGFAGGEVIYHRTEKKTLREVQVNASKVRARKTEKAKRRALQDENVQRKRQKREDKLERKHQRREAAAEAQQANPFEVAHGDGDGDGYAAGDEE", "soluble on expression in E. coli": "soluble"}, {"sequence": "MKKSLALLAFATLLPSAWTHADSAYINYRHQYAESTRMHADRVKFGSRLDSGWGFEGELKYKTAGDRQDVAFDNTVGNGHELTTSYQYRLNDKWMLTPSLALESIEKSTAYKMGLKLGYKVNDQLSVSGRYRYDSIKLDRDKVNHDMPDNQMDDQSINRYDVWVNYASKGPWAYEYQFTYFDADYIRYDNGRTDYEQNAAFKYRWDKHWVPFFEVGDIKVDSEDDKRQLRLRVGVQYNFL", "soluble on expression in E. coli": "not soluble"}, {"sequence": "MATLEDGTSEDRVANDEYKIWKKNTPFLYDLVMTHALEWPSLSVQWLPDVAKDNSDHTIHRLILGTHTSDEQNHLLISKICMPTDDAQFDASRYDTERSEYGGFGAVNGKVEPDIRINHEGEVNRARYMPQKSNIIATKSPHADVYIFDYLKHSAVPRDNTFNPLIRLKGHTKEGYGLSWNPNKEGLILSASDDQTVCHWDINANQNVAGELQAKDVFKGHESVVEDVAWHVLHDGVFGSVGDDKKLLIWDVRTSTPGHCIDAHSAEVNCLAFNPYSEFILATGSADKTVALWDLRNLRMKLHSFESHRDEIFQVQWSPHNETILASSGTDKRLHVWDLSKIGEDQSAEDAEDGPPELLFIHGGHTAKISDFSWNPNEPWVVCSVSEDNILQVWQMADNIYNEVDEETPADVVERQQ", "soluble on expression in E. coli": "not soluble"}, {"sequence": "RQDARERERLAVLAASRTALAPLDGPPQVLWTSDREEVLWASARTPDGLLVVPGTQGERVVRALDPATGDVVWERELLPPRDTAPAPNEDVAGASCVGHGAAGDLLACLASDAMTVFDERTTDIRYVAPTVVRLVLLDPQDGTVVADLSDAVAGTGTAPAYVALGDLVVVSSVVDDATRVVAVAPDGSVAWRTEVPPSTRPAPGLPGLRRADVLALGDHLVVATAEEMRLLDATGATVRTVPLADDESLGGAEGTTAFARTGLDRVTLMQVGSEVVARGEGTKVVRADHVGELPGGRVRADVDDGSDPRLVLTSDAEGLHGWDAEGVRRWSADVQVTRSAMVLAGRVHATTRADALVTFDARTGAELWRRDGLVLDQAPLADGRVLLVRERGADGAALDLVALDVADGEVAWRTPWPEGVDQLQAVFGVIVGLSYDVEGEDWSVTALG", "soluble on expression in E. coli": "not soluble"}, {"sequence": "SLKIDTHAHIFLKKLNTVANARYKPDYDASFKDYKANLDHYDFNKGVLVQPSFLGIDNEFLLQSIEKDENIKAIVVVDENIKFDELKKLKERKACGVRLNLIGKELPNFKSMVWTQFFENLSKLKMQIEIQRDLDNNLVDIVENLIPYGCNIVIDHLARANANLTNLEDLICLKNSRIFFKISGFYRAKIDYANNEQAVKFAKKIYEILKEHFPLSNFVFGSDWPHTNFEANINFSSALVAFNEVVVSKKEQEQILGDNACALFGF", "soluble on expression in E. coli": "soluble"}, {"sequence": "MAGDPMKIMIFICGEGLGHTSRCLALGKELLAAGHEIEFGAYGYSRDLVEKTGYRIHEIPSEIKLVGKAGGFDLSGSIEATLKNARILGGPKVLKLIKDFKPDVVVSDSYYLGTLAAMLLNIPVYLIINQSNMEDFFKNRGVPIRLLGDLTKKFYREVFEKTDKIIIPDYPLPYTVCRKNLNFSPGLWEKLEHHHHHH", "soluble on expression in E. coli": "not soluble"}, {"sequence": "MGSDKIHHHHHHMHLAAEQMNLSQPAVSKMLKEIEGLLGFQVFERLPRNMPVTALGEHVIRYAQRVLNDAKHFVEDIEILRLGGHGFLKVGGIFAATAVVIPNSIIEIKKQWPLLSIDVVEQTSDHLMEMLSEHTLDLAIGRFTDVTQSQFFDFQPLGPEPFCIVVNNAHPCAQKKFCTLEELLKWPWVLYPKGTPIRERMEGAFARAKVKIPLNTVNTMSMQTFLQILKGAPMVGMLPEAMVIDQVKEGQLQILETDLILDAQDYGILTRKDEPVSDIAAAFINILLKNAKRK", "soluble on expression in E. coli": "not soluble"}, {"sequence": "MQIEKLRGQGLDEFFQGILTLENLEECYAFFDDVCTVNEIQSMAQRFQVAKMLHDGKTYNVIESETGASTATISRVKRSLHYGNDMYDVVFSRMTKPE", "soluble on expression in E. coli": "not soluble"}, {"sequence": "MSDMEKPWKEEEKREVLAGHARRQAPQAVDKGPVTGDQRISVTVVLRRQRGDELEAHVERQAALAPHARVHLEREAFAASHGASLDDFAEIRKFAEAHGLTLDRAHVAAGTAVLSGPVDAVNQAFGVELRHFDHPDGSYRSYVGDVRVPASIAPLIEAVLGLDTRPVARPHFRLRRRAEGEFEARSQSAAPTAYTPLDVAQAYQFPEGLDGQGQCIAIIELGGGYDETSLAQYFASLGVSAPQVVSVSVDGATNQPTGDPNGPDGEVELDIEVAGALAPGAKIAVYFAPNTDAGFLNAITTAVHDPTHKPSIVSISWGGPEDSWAPASIAAMNRAFLDAAALGVTVLAAAGDSGSTDGEQDGLYHVDFPAASPYVLACGGTRLVASAGRIERETVWNDGPDGGSTGGGVSRIFPLPSWQERANVPPSANPGAGSGRGVPDVAGNADPATGYEVVIDGETTVIGGTAAVAPLFAALVARINQKLGKPVGYLNPTLYQLPPEVFHDITEGNNDIANRARIYQAGPGWDPCTGLGSPIGIRLLQALLPSASQAQP", "soluble on expression in E. coli": "soluble"}, {"sequence": "MPRWRSAVEGLMLNRVVEQLTAQLPARNLGWVFPDETTAALLLDGPDGQPLGNLVLGYRPPQPVLFLSRERLRGDPHNPFQRLLATRVRGELLKIEQFKLDRVVALHFGPAEGFIDQPPARLLFEVTGRNANLLVMEEGEGFAGRITLAAREITGSRNRFRTIRSGGPYTPPPPYDKFDPRTMTPADAQTLAGVPLSEWRGRVDGLGPMLSAELARRAEMRPSQAPGDDWERAYDALKSLVADPSVSEGTLSEGAREAARQEKAGALRKLLREPLEKRVTLLENQLGDVTRAEEGVEIAAQDRAEADLLMAYAQTVEPGAASALLPSFDGEGEVPVSLEPQLSAVQNAEKRYARARRRDEVYLRLAEREGSIRSELEAARERLHRLDHAELEQLEQLASDLEREKPERS", "soluble on expression in E. coli": "not soluble"}, {"sequence": "MGSDKIHHHHHHMEQIIRIGMDTSKHVFQLHGVNAAEEVVLRKKMRRKEMVAFFERAAPTVVALEACGGSHHWARLLEALGHDVKLIPPQYVKPYVKRGKNDAADAEALCEAVSRPTMRFVRVKTTDNQAALMLVGMRDRLVRNRTQLANAIRGYAAEFGLIAATGTSKVRSLLERIATDETLPELARELFGLHGREYDRLEDEIEKVEARLMAWHRTNECSRRLTRIPGVGPIGALMMVMKTPAPETFRSGRHFAAWLGLTPKDHSTAGRVRLGVITRAGDENLRSVLVAGATAVLRHVREDRGKNASPWLLDMLNRKPPKLVAVALANKIARVAWKLMVTGERYNPNAALSAYGQAA", "soluble on expression in E. coli": "not soluble"}, {"sequence": "MQIVQIARPGSMKGWIRKAVARYAHATGRGGKFYRRFCNPSGLEWGAYLARWGNFHSVGSNFYVNTGCKFLDPSLVRIGNSVGLSDCTLIGHDGVVLLIEHRFGKHLDSVGFIDIKDNCFIGHGAIVMPRVTIGPESIVAAGAVVTKDVPPGTVYGGNPAEFICTTEQLIKRVEARCEAYPWIDLVKQRNGAYDPEVEPLLMAQRRQYFFGDSLEHHHHHH", "soluble on expression in E. coli": "not soluble"}, {"sequence": "MVTRITGLASGMDIDDIVSKLMQTERAPLDKLTQKKQTLEWQRDSYREVNSKIKELQDYMSKNTLTYPSTYQSKTVTSSNESVLTATGSVSAPNSSSTVEVASLATAATYKANNYTGYTQGDYNLAFNVVAPGETTAKTVNISVTSADTIDNVISKLNSSDLGVSAFKDKIWNGTEYVETIAFSSKATGAGGSIQAADSATADFMSGQLGFSLDADNKLTAYKEGTNAKVTINGFEMEKLTNNFTVNGVTYSIKNTTAATGPVTTSVSTDVDGIYNQIKEFVDKYNELVDSLNEKLKEEKYRDYTPLTSEQKEAMSDKEVELWEEKAKSGLLRNDSSISTGTNQMRTDFYTQVNADGKTYQLTEFGITTSSAYQLRGHLEINEEKLKAKIAEDPQGVANLFTSGTNDSNYSDKGIMKRITNTLRSTVKSIEAKAGNSTMGASSYSIGKNLNSISTEITDMQDRLNTIENRYYSKFSAMDSAIQKMNEQASYLSQLLVQ", "soluble on expression in E. coli": "not soluble"}, {"sequence": "MSLNDFRPNPSLLLETSWEVCNKQGGIYTVLTSRAHEMMKRHDGRIIFIGPLLTEQEDLPTDFENTVPAILEDWHRDAAPSLDLRYVCGSWRTPGSPPVVLVDFEPLHAQKATLYYEMWEHFGIQSDKGYGDYDEASLFGIAAAQTMHSLCEYLCPEDQPAIGIFNEWMLGMGLLYSKRKTPRLKTLFLTHATTTGRSIAGNNKALYAYMPGYNGDQMAAELGVEAKHGIEKAAAHQSDTFATVSELTAKECRQLLERDPMVLPNGFEPNFVPQGEEYERRRAEARKRLLHVAEHLTGKQLPADTLLIATSGRYEYRNKGIDLFIDAASEAGRSGKLRTPTLAFILVPAWVAGARADLQYLLNHPDPTEYKEKPLPYPFLTHWLHDIQEQTISKRLDESAGSAGEVSFIFVPCYLNRKDGIFGLGYYDLLIGMDLTVFPSYYEPWGYTPLESIAFGIPTVTTDLSGFGLWAMQERGSRNDFSTGVAVIKRTDDNYAEAVQAIADLLYRWPAESTDRTACRLAAMQTASHAEWRLFYNRYEEAYSELLSRDEGHHHHHH", "soluble on expression in E. coli": "soluble"}, {"sequence": "MGSDKIHHHHHHMDKSIKSNAEKFIMIYNEIDRYMRKVLDENERTGNADLVKKMAKRNKVFEEYKDELMLFARLRNSIVHNPYNAELDPIAEPHDKIIVKYGELRDKILNPPLALDTIAVKGKNIYVVTQNESVLDVMTVMKDNNYANVPVVDNLGMIVGVFSKNTVFSYMVENEGVQIRRDTKINDFKEFIPLHKHENEFFAFVSRKTLAVEIEDMFKKRIHGKKKLSLVFITETGRVKEKILGIVTPWDIAIN", "soluble on expression in E. coli": "not soluble"}, {"sequence": "MALYAVDKPLHLTSHDVVEEARRRLSTRRVGHTGTLDPLATGLLLLVTNESTKLVPFLSGEDKEYIAWVSFGATTPTLDAEGPISEEAPARFDRKDLEAALPRFLEVREQVPPLYSAIKVGGKRAYEAAREGKPLALGPRPVRYLEVELLAFDPEPIPHPIAPSARGWRLAERRGRPVRLPRPLGAYPTAVVRLVVGPGTYVRAFARDLGEMLGTKAFLSGLVRTRVGRVGLERAVALSDLSPEKAIPELDVLPFPVVELSHTEARRVLEGMPLPIPAMGYVTLVDSKRRLLAIAEGDGFKLKIRRVFAKEA", "soluble on expression in E. coli": "soluble"}, {"sequence": "MGSDKIHHHHHHMMKLIPRSSDISPGIDGICPGPFPPNGFTVLTDAAYGNGDCFGLYWPIGQEHKLPIVCETYHDEWRIVPAFSSIKKFEEWLEVNDDDPHENGISIEDQDFAANLFRVARKCLSTGRLDDALPLLQRATEQLPEVSEYWLALAIQYRRCKKTEAAAQAALNAYLGNWAFGVPDNKVIHLLSQAADVPNFQDDPVIQCIKEQGLDLSFGGTKENNNYPLMQMCVDTYFAQRKPLQALTLLHNYAWIMSSETTAFQERYDFNIDEWRAKFRQLCLEYFGDSRTQFT", "soluble on expression in E. coli": "not soluble"}, {"sequence": "MSLQIMLCAISNIASGNCSEDCKYCTQSAHVKTDIQKYRRKELSQIVLEAKMAKKNEALGFCLVTAGLGLDDEKLEYVCEAAKAVQKEVPNLLLIACNGMASVEQLKELKKAGIFSYNHNLESSKEFFPQICTTHTWESRFQTNLNAKEAGLMLCCGGIYGMGESEEDRLSFRKSLQELQPFSTPINFFIANENLKLQVPRLSADEALKIVRDTKEALPQSVVMVAGGREVVLRERQYEIFQAGAGAIVIGDYLTTKGEEPSQDIIKLKEMGFTFASECHEGHHHHHH", "soluble on expression in E. coli": "not soluble"}]}]}
